B1: glmS ribozyme (parent)
chain: AUAAAAGCGCCAGAACUACAGAAAUGUAGUUGACGAGGAGGAGGUUUAUCGAAUUUUCGGCGGAUGCCUCCAAA

Common to all, as to conditions: with glucosamine-6-phosphate
In series [1] the parent is B1. The series is described as follows: kcat; higher = faster cleavage; RNA array. In short, it runs like this:
(§1)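 Glucosamine-6-phosphate in HEPES/KCl/Mg(OAc)2 buffer, at 40 μM to 10 mM, was flowed over barcoded ribozyme variants transcribed in situ by E. coli RNA polymerase on sequenced MiSeq chips. Tracking was through a hybridised Cy3 probe at 37 °C. kobs, kcat and KM came from exponential decay fits and weighted Michaelis–Menten fits of normalised per-tile medians.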

The variants in series [2] derive from B1. The series is described as follows: self-cleavage kobs at 10000 uM GlcN6P; higher = faster cleavage; RNA array. The gist of the method: as §1
In series [3] the parent is B1. The series can be described thus: KM; higher = weaker cofactor use; RNA array. The gist of the method: as §1
Variants of B1 are the subject of series [4]. The series can be described thus: self-cleavage kobs at 40 uM GlcN6P; higher = faster cleavage; RNA array. In short, it runs like this:
as §1

In series [5] the parent is B1. The series can be described thus: self-cleavage kobs at 640 uM GlcN6P; higher = faster cleavage; RNA array. The gist of the method: as §1
In series [6] the parent is B1. The series can be described thus: self-cleavage kobs at 2500 uM GlcN6P; higher = faster cleavage; RNA array. The gist of the method:
as §1

Series [7] covers variants of B1. The series is described as follows: self-cleavage kobs at 160 uM GlcN6P; higher = faster cleavage; RNA array. The gist of the method: as §1

± gives the standard error. For some of these results: This sample holds only a part of the variants without activity.

For AUAAAAGCGCCAGAACUACAGAAAUGUAGGUGACGAGGAGGAGGUUUAUCGAAUUUUUGGCGGAUGCCUCCAAA [U30G C58U], in the series with glucosamine-6-phosphate [1], the kcat was found to be 5.55e-05 ± 8.1e-06 s⁻¹. Moreover, the “self-cleavage kobs at 10000 uM GlcN6P” value with glucosamine-6-phosphate [2] is 4.54e-05 ± 1.6e-05 s⁻¹.

On to AUAAAAGCGCCCGAACUACAGAAAUGUAGUUGACGAGGAGGAGGUUUAUCGAAUUUUCGGCGGAUUCCUUCAAA [A12C G66U C70U], for which, in the series with glucosamine-6-phosphate [1], the kcat is 0.00136 ± 0.00036 s⁻¹. In addition, the Michaelis constant (KM) with glucosamine-6-phosphate [3] stood at 1190 ± 570 µM. The “self-cleavage kobs at 40 uM GlcN6P” value with glucosamine-6-phosphate [4] came to 3.71e-05 ± 1.5e-05 s⁻¹. In addition, in the series with glucosamine-6-phosphate [5], the “self-cleavage kobs at 640 uM GlcN6P” value is 0.000496 ± 0.00012 s⁻¹. Further, the “self-cleavage kobs at 2500 uM GlcN6P” value with glucosamine-6-phosphate [6] came out at 0.00128 ± 0.00028 s⁻¹. Further, in the series with glucosamine-6-phosphate [2], the “self-cleavage kobs at 10000 uM GlcN6P” value was determined as 0.000992 ± 0.00028 s⁻¹.

In the case of AUAAAAGCGCCAGAACUACAGAAAUGUAGUUGACGAGGAGUAGGUUGAUCGAAUUUUCGGCGGAUGCCUCCAAA [G41U U47G], in the series with glucosamine-6-phosphate [1], the kcat was found to be 0.00121 ± 0.0005 s⁻¹. Besides, the “self-cleavage kobs at 40 uM GlcN6P” value with glucosamine-6-phosphate [4] was 4.35e-05 ± 1.2e-05 s⁻¹. Also, in the series with glucosamine-6-phosphate [7], the “self-cleavage kobs at 160 uM GlcN6P” value amounted to 3.94e-05 ± 1.2e-05 s⁻¹. In addition, the “self-cleavage kobs at 640 uM GlcN6P” value with glucosamine-6-phosphate [5] amounted to 0.000221 ± 4.5e-05 s⁻¹. Besides, in the series with glucosamine-6-phosphate [6], the “self-cleavage kobs at 2500 uM GlcN6P” value is 0.000364 ± 8.6e-05 s⁻¹. Besides, in the series with glucosamine-6-phosphate [2], the “self-cleavage kobs at 10000 uM GlcN6P” value worked out at 0.00093 ± 0.00013 s⁻¹.

With AUAAAAGCGCCAGGACUACAGACAUGUAGUUGACGAGGAGGAGGUUUAUCGAAUUUUCGGCGGUUGCCUCCAAA [A14G A23C A64U], the kcat in the series with glucosamine-6-phosphate [1] turned out to be 0.000287 ± 3.5e-05 s⁻¹. In addition, the KM with glucosamine-6-phosphate [3] was found to be 1610 ± 460 µM. Also, in the series with glucosamine-6-phosphate [5], the “self-cleavage kobs at 640 uM GlcN6P” value is 8.79e-05 ± 2.3e-05 s⁻¹. Further, the “self-cleavage kobs at 2500 uM GlcN6P” value with glucosamine-6-phosphate [6] turned out to be 0.000151 ± 4.3e-05 s⁻¹. For the same variant, the “self-cleavage kobs at 10000 uM GlcN6P” value with glucosamine-6-phosphate [2] was found to be 0.00026 ± 5.2e-05 s⁻¹.

Take AUAAAAGCGCCAGAUCUACAGAAAUGUAGUUUACGAGGAGGAGGUUUAUCGAAUUUUCGGCGGAUGCCUCCAAA [A15U G32U]: the kcat with glucosamine-6-phosphate [1] is 0.00104 ± 0.0003 s⁻¹. Further, the KM with glucosamine-6-phosphate [3] is 6790 ± 2800 µM. Moreover, the “self-cleavage kobs at 640 uM GlcN6P” value with glucosamine-6-phosphate [5] is 0.000103 ± 1.2e-05 s⁻¹. For the same variant, the “self-cleavage kobs at 2500 uM GlcN6P” value with glucosamine-6-phosphate [6] is 0.000266 ± 2.9e-05 s⁻¹. Also, in the series with glucosamine-6-phosphate [2], the “self-cleavage kobs at 10000 uM GlcN6P” value came to 0.000628 ± 6.4e-05 s⁻¹.

Take AUAAAAUCGCCAGAAAUACAGAAAUGUAGUUGACGAAGAGGAGGUUUAUCGAUUUUUCGGCGGAUGCCUCAAAA [G7U C16A G37A A53U C71A]: the kcat with glucosamine-6-phosphate [1] was found to be 1.25e-05 ± 4.6e-06 s⁻¹.

Take AUAAAAGCGCCAGAACUACAGAAAUGUAGUUGACGAGGUGGAGGUUUAUCGAAUUUCCGGCGGAUGCCUCCAAA [A39U U57C]: the kcat with glucosamine-6-phosphate [1] worked out at 0.00022 ± 2.2e-05 s⁻¹. Further, in the series with glucosamine-6-phosphate [3], the KM came to 9720 ± 1500 µM. The “self-cleavage kobs at 2500 uM GlcN6P” value with glucosamine-6-phosphate [6] was 4.56e-05 ± 8.7e-06 s⁻¹. For the same variant, the “self-cleavage kobs at 10000 uM GlcN6P” value with glucosamine-6-phosphate [2] came to 0.000111 ± 2.2e-05 s⁻¹.

Regarding AUAAAAGCGCCAGAACUACAGAAAUGUAGUAGACGAGGAGGAGGUUUAUCGAAUUUUCUGCGGAUGCCUCCAAA [U31A G59U], the kcat with glucosamine-6-phosphate [1] is 3.57e-05 ± 2.2e-06 s⁻¹. In the series with glucosamine-6-phosphate [3], the KM came to 2240 ± 490 µM.

For AUAAAAGCGCCAGAAAUACAGAAAUGUAGUUGACGAGGAGGAGGUUUAUCGAAUUUUCGGCGGAUGCCACCAAA [C16A U69A], the kcat with glucosamine-6-phosphate [1] came out at 3.39e-05 ± 9e-06 s⁻¹. The “self-cleavage kobs at 2500 uM GlcN6P” value with glucosamine-6-phosphate [6] is 4.42e-05 ± 1.3e-05 s⁻¹.

With AUAAAAGCGCCAGAACUACAGAAAUGUAGUUGACGAGGAGGAGGUUUAUCGAAUUUUCGGCGGGUGCCUGCAAA [A64G C70G], the turnover number (kcat) with glucosamine-6-phosphate [1] amounted to 5.51e-05 ± 2.1e-06 s⁻¹. The KM with glucosamine-6-phosphate [3] stood at 224 ± 79 µM. In addition, the “self-cleavage kobs at 40 uM GlcN6P” value with glucosamine-6-phosphate [4] was below 1e-05 s⁻¹. The “self-cleavage kobs at 640 uM GlcN6P” value with glucosamine-6-phosphate [5] is 4.33e-05 ± 1.6e-05 s⁻¹. In addition, the “self-cleavage kobs at 10000 uM GlcN6P” value with glucosamine-6-phosphate [2] is 5.41e-05 ± 8.6e-06 s⁻¹.

As for AUAAAAGCGCCAGAACUACAGAAAUGUAGUUGACGUGGAGGAGGUUUAUCGAAUUUUCAGCGUAUGCCUCUAAA [A36U G59A G63U C71U], in the series with glucosamine-6-phosphate [1], the kcat is below 1e-05 s⁻¹. The “self-cleavage kobs at 2500 uM GlcN6P” value with glucosamine-6-phosphate [6] is below 1e-05 s⁻¹.
